We go through two molecules from article PMC3863792.

The series addresses T1, bio-d-mC5a (mirror-image mouse C5a) (mouse, UniProt P06684).
T1 sequence: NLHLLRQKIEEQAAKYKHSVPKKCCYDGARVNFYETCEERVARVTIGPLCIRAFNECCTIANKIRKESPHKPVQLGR
Nature of the series: competition.

On to GCCUGAUGUGGUGUUGAAGGGUUGUUGGGUGUCGACGCACAGGC (structured_RNA) [274-C8-002], for which the binding result was “binds”.
For the molecule GCCUGAUGUGGUGGUGAAGGGUUGUUGGGUGUCGACGCACAGGC (structured_RNA) [274-C8-002-G14], the binding result is “binds”.
